The test has as its target T1, human NT5E-Biotin (for NT5E, GenbankID: NP_002517.1, position: 1-552) (human, UniProt P21589 27-552, biotin label, site not stated).
T1 construct: range 1-552; Positions 1-552 as printed include the signal peptide; No cleavage site is stated; also called HNT5E-Biotin; antigen human NT5E-Biotin
T1 sequence (looked up): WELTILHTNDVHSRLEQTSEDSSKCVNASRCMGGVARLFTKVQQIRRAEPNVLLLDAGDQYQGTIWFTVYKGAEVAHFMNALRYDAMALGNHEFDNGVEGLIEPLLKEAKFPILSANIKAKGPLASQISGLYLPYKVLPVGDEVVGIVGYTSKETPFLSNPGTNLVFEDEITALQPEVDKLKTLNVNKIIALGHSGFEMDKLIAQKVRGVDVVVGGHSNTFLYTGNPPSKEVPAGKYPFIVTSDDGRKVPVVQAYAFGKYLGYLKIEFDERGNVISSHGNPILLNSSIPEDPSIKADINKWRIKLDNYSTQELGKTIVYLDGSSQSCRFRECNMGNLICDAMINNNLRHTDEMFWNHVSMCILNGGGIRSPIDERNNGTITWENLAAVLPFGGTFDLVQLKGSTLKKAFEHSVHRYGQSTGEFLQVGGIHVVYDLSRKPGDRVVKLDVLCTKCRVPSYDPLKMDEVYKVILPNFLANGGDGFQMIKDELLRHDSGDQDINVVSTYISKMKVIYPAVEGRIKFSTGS
Description: ELISA, NT5E-Biotin on streptavidin plate. On the technique in general: An ELISA detects its analyte on a solid surface through an enzyme-linked reagent.

B1: murine anti-CD73 monoclonal antibody 19F3 (antibody, V domains shown)
VH: EVQLQQSGPELVKPGASMRMSCKASGYSFTGYTMNWVKQSHGKNLEWIGLINPYNAGTSYNQKFKGKATLTVDKSSSTAYMELLSLTSEDSAVYYCARSEYRYGGDYFDYWGQGTTLTVSS
VL: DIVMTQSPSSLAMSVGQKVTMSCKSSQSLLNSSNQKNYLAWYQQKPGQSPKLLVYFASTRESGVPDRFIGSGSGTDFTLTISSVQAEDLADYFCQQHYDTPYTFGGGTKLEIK
notes: also called murine antibody 19F3
Molecule B1 came in with an EC50 of 18 pM.

By EC50 is commonly meant the midpoint of the concentration-response curve. Higher therefore signals a need for much substance.
